From patent publication US9474783B2, “HIP/PAP protein and derivatives thereof for use in treating cancer” (priority 2012, dated 2016)

B1: ALF-5755 (protein, listed as Homo sapiens)
chain: MEEPQRELPSARIRCPKGSKAYGSHCYALFLSPKSWTDADLACQKRPSGNLVSVLSGAEGSFVSSLVKSIGNSYSYVWIGLHDPTQGTEPNGEGWEWSSSDVMNYFAWERNPSTISSPGHCASLSRSTAFLRWKDYNCNVRLPYVCKFTD

Tests used:
MCF7 cells = experiment: In vitro mammary cancer cell line growth (cell density, optical density); assay type: cell-based, Human
Method: (§1) The MCF7 (Human breast adenocarcinoma) and PANC1 (Human pancreatic carcinoma, epithelial-like cell line) cell lines were obtained from LGC-Promochem ATCC.
(§2) Sub-confluent cultures (70-80%) were split using Trypsin/EDTA and collected in serum free culture medium. Cell concentration was determined using Trypan blue staining and a Mallasez counting chamber.
(§3) Briefly, 1,000 cells per well were seeded in 96 well-plates. Cells were maintained in DMEM medium complemented with 1% antibiotics (P/S), and cultured in a humidified atmosphere at 37° C. and 5% CO2.
(§4) Cells were maintained in culture for 1 to 3 days (1 plate for each day of analysis). For control of cell survival/growth and validation of the experiments, equivalent cultures were performed in the presence of Foetal calf serum (5%).
(§5) The effect of increasing concentrations of ALF-5755 ranging from 0 to 2000 ng/ml was investigated over time up to 72 hours. Results for the optimal concentration (2000 ng/mL) only are presented below.
(§6) For each time point (24, 48, and 72 hours), 60 minutes prior to cell proliferation measurement, each plate received 10 μL of cell proliferation reagent per well.
(§7) The absorbance of the samples was measured against a background control using a 96-well plate reader at 450 nm with a reference wavelength of 690 nm.
(§8) Raw data are expressed as optical density.
(§9) Two-way ANOVA were performed to study ALF-5755 concentration incidence on cell growth and cell growth over time for each condition of culture (+/−ALF-5755 and +/−doxorubicin). Post-hoc Bonferroni were applied to reveal effects of ALF-5755 concentration at each time point, if any.

PANC1 cells = experiment: In vitro pancreatic cancer cell line growth (cell density, optical density); assay type: cell-based, Human
Method: as §1, §2, §3, §4, §5, §6, §7, §8, §9

[1] = system: PyMT cells (primary mammary carcinoma); experiment: In vivo model of primary mammary cancer (tumor weight, survival)
Method: PyMT (Polyoma middle T) cell line was derived from a primary mammary carcinoma induced by PyMT oncogene activation in FBV mice. Therefore, all experiments were performed in FBV mice, the syngenic corresponding strain.
PyMT mice were sacrificed at 12/13 weeks when presenting a large tumoral mass. The tumour was dissected and cells were dissociated mechanically in DMEM/Glutamax medium and then filtrated. Dead cells were eliminated by centrifugation then viable cells were frozen in aliquots. For tumour implantation in FBV mice, appropriate number of aliquots cells was thawn.
At day 1 of the experiment, female mice received 1 million of PyMT cells, within the 8th mammal in the adipose tissue. Cells were injected as a solution in PBS (0.05 ml total pre-warmed at 37° C.).
Alzet pumps were implanted in the back of the mice, at the time of PyMT cell injection (experiment 1) or after tumor implantation, when doxorubicin treatment started (experiment 2). The pumps continuously delivered either 43.2 μg of ALF-5755 or vehicle per day for a period of 28 days.
Animals started to receive doxorubicin at the time when tumor was detected (15 days after PyMT cells injection for both, ALF-5755 and Vehicle groups) by intra-tumor injection. Animals receive during four weeks, a weekly dose of 1 mg/kg that was known to induce tumor cell-death.
At the end of doxorubicin treatment (6 weeks after the beginning of the procedure), animals were sacrificed.
The weight of the tumors was compared between the two groups by mean of non-parametric one tailed Mann whitney test. Survival was compared by mean of one-tailed exact Fischer test.

[2] = system: DHDK12 cells (liver metastases of colorectal cancer); experiment: In vivo model of liver metastases of colorectal cancer (tumor area after partial hepatectomy); parameters: species or system BDIX rat; conditions: 0.5 mg/kg single injection; for ratio of tumor liver area to total liver area: 14 days after treatment
Method: DHDK12 cell line was derived from liver metastatic cells developed by BDIX rats after 1,2-Dimethylhydrazine) intoxication (chemically-induced cancer). Therefore, all experiments were performed in BDIX rat, the syngenic corresponding strain.
Cells were expanded in vitro in a medium composed of 50% DMEM and 50% F12 (Invitrogen Gibco, Pailsey, GB) complemented with foetal calf serum (10%) and a combination of antibiotics (1% penicillin/streptomycin). Absence of mycoplasm contamination was controlled.
At day 1 of the experiment, rats were anesthetized with isofluran gas. After laparotomy they received 20 millions of DHDK12 cells.
At day seven after the injection of cancerous cells, when the tumor was already implanted, two types of hepatectomies were performed: either 30% or 70% of the liver was resected.
The control group was composed of animals receiving either the equivalent volume of vehicle or no injection.
Fourteen days after hepatectomy and treatment, animals were sacrificed. Serial sections of complete liver were performed for each animal (millimetric sections, the number of sections depending on the liver size and morphology). The tumor expansion was assessed by quantifying in square pixels (pixel^2) the area of each cancer cells nodule. The complete area of each section was also recorded and a ratio of the nodule/total area was calculated. Analyses were performed with Adobe Photoshop CS3 software.
Depending on the experiment, one-tailed t-test or two-tailed Mann-Whitney tests were performed to quantify the effect of ALF-5755 on nodule expansion. Area of nodules was expressed as a percentage of total liver area.

Row | Molecule | EC50 (MCF7 cells; Homo sapiens, MCF7 cells at 24H) | reduction of the growth of MCF7 cancerous cells (MCF7 cells; doxorubicin 75 μM, 24 hours post-plating, maintained at 72 hours) | EC50 (PANC1 cells; Homo sapiens, PANC-1, PANC1 cells at 72H) | reduction of the cell growth (PANC1 cells; doxorubicin 2.5 μM, effective at 48 hours post-plating, maintained at 72 hours) | maximum additional reduction in cell density in combination to doxorubicin (MCF7 cells; ALF-5755 2000 ng/mL + doxorubicin 75 μM versus doxorubicin alone, 72 hours) | influence on the doxorubicin effect on cell density (MCF7 cells; ALF-5755 at any of the tested concentrations (0 to 2000 ng/ml) with doxorubicin 75 μM) | deaths during the experiment ([1]; exp 1, ALF-5755 infusion with doxorubicin, n=3) | tumor weight at day 45 after implantation ([1]; exp 1, infusion 43.2 μg per day for 28 days from implantation, with weekly intra-tumor doxorubicin, control 1.1±0.2 g, P=0.059) | deaths during the course of the experiment ([1]; exp 2, doxorubicin treated animals (1 mg/kg weekly intra-tumor for 4 weeks), same as group without doxorubicin) | deaths during the experiment, in total ([1]; exp 2, groups with and without doxorubicin pooled, n=14, placebo 6 of 14 died, P=0.008) | deaths during the course of the experiment ([1]; exp 2, infusion 43.2 μg per day for 28 days from tumor detection, group without doxorubicin, placebo 3 of 7 died) | ratio of tumor liver area to total liver area ([2]; after 30% partial hepatectomy, control ratio 0.14) | decrease of tumor/total liver area ratio versus controls ([2]; after 30% partial hepatectomy, versus non-injected controls, p=0.022) | ratio of tumor liver area to total liver area ([2]; after 70% partial hepatectomy, control ratio 0.29) | decrease of tumor/total liver area ratio versus controls ([2]; after 70% partial hepatectomy, versus vehicle, p=0.0026) | additional decrease of cell density in combination to doxorubicin (PANC1 cells; ALF-5755 2000 ng/mL + doxorubicin 2.5 μM versus doxorubicin alone, 24 hours post-plating)
1 | COc1cccc2c1C(=O)c1c(O)c3c(c(O)c1C2=O)C[C@@](O)(C(=O)CO)C[C@@H]3O[C@H]1C[C@H](N)[C@H](O)[C@H](C)O1 [doxorubicin, reference compound] | 75 µM | about 50% | 2.5 µM | about 50% | – | – | – | – | – | – | – | – | – | – | – | –
2 | B1 | – | – | – | – | 33% | did not compromise the doxorubicin effect | no death observed | 0.63 ± 0.12 g | exact same result | none | no death was observed | 0.05 | about 60% | 0.15 | about 50% | up to 22%
